This is an account of results in article PMC11457862.

The target of test [1] is human IL-2 (amino acids 1-133), soluble, P60568. Nature of the test: yeast display titration. Conditions: chain shown with the change.
Test [2] shares this target. Nature of the test: yeast display competition (IL-2 binding in the presence of soluble IL-2Rα competitor). The note with it: chain shown with the change; IL-2 5 nM; IC50 is the concentration of soluble IL-2Rα competitor (Dm27).
Test [3] deals with T1, biotinylated human IL-2Rβ ectodomain (amino acids 1-214) (human) (UniProt P14784).
T1 sequence (chain, biotin on the biotin acceptor peptide (BirA ligase)): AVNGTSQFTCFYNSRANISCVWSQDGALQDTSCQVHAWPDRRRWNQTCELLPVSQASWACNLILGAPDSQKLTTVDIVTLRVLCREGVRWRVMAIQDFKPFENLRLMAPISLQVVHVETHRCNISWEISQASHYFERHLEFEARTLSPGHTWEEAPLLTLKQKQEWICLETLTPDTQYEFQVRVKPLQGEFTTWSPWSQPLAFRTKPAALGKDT
Nature of the test: BLI; same set-up as a3; equilibrium titration, first-order fit (Supplemental Figure 4A-C, Supplemental Table 4). For orientation: BLI is a label-free optical method that tracks binding on a fibre tip over time.

Test [4] addresses biotinylated human IL-2Rα ectodomain (amino acids 1-217) (human). Nature of the test: BLI; same set-up as a1; equilibrium titration of the response at the end of the association phase, first-order fit (Figures 2 and 3, Supplemental Table 1).
The target of test [5] is T1, biotinylated human IL-2Rβ ectodomain (amino acids 1-214) (human). Described as above.

B1: yeast-displayed 602 scFv T101S; F225S; G227D (protein)
chain 1: EVQLQESGPGLVAPSQSLSITCTVSGFSLTNYDISWIRQPPGKGLEWLGVIWTGGGTNYNSGFMSRLSITKDNSKSQVFLKMNSLQTDDTAIYYCVRQGRSPYWGQGTLVTVSA
chain 2: DIQVTQSPSSLSVSLGDRVTITCKASKDIYNRLAWYQQKPGNAPRLLISGATSLETGVPSRFSGSGSGKDYTLTITSLQTEDVATYYCQQSWDTPYTFGGGTKLEIK
By EC50 is commonly meant the concentration that produces a half-maximal response. Low values mean an effect from little substance, high ones a need for much substance. For orientation: IC50 means the midpoint of a concentration-inhibition curve. Take B1: in test [1], the concentration giving a half-maximal response (EC50) stood at 0.4 nM. In addition, in test [2], the half-inhibitory concentration (IC50) turned out to be 1120 nM.

B2: anti-human IL-2 antibody 602 (MAB602), recombinant mouse IgG2a kappa (antibody, V domains shown)
VH: EVQLQESGPGLVAPSQSLSITCTVSGFSLTNYDISWIRQPPGKGLEWLGVIWTGGGTNYNSGFMSRLSITKDNSKSQVFLKMNSLQTDDTAIYYCVRQGRTPYWGQGTLVTVSA
VL: DIQVTQSPSSLSVSLGDRVTITCKASKDIYNRLAWYQQKPGNAPRLLISGATSLETGVPSRFSGSGSGKDYTLTITSLQTEDVATYYCQQFWGTPYTFGGGTKLEIK
As usually defined, the Kd is the equilibrium constant for the complex coming apart. Read a high Kd as weaker binding. Regarding B2, the dissociation constant (Kd) in test [3], in test [4] and in test [5] was > 2000 nM in each case.
